From patent US20220195023A1
Positions count from the first letter of the chain named. Several values for one entry are separate records, joined by “and”; a condition that tells them apart may be missing. Equal entries are not always repeated.

B1: AB-000317 (antibody, V domains shown)
VH: QMQLVESGGGVVQPGRSLRLSCTASGFTFSTYAMHWVRQSPGQGLQWVAVISYHSTNKYYEDSVRGRFTISRDNSKNTLYLQMNSLRAEDTAVYYCARDGYSSSFFDFWGQGTLVTVSS
VL: DIQMTQSPSTLSASVGDRVAITCRASQSISRWLAWYQQQPGKAPKLLMSGASVLESGVPSRFSGSGSGTEFTLTISSLQPDDFATYYCQHYNSYFVTFGQGTKVEIK
B2: AB-007048 (antibody, V domains shown)
VH: B1 VH with A33S
VL: B1 VL
B3: AB-007059 (antibody, V domains shown)
VH: B1 VH with S104T
VL: B1 VL
B4: AB-007063 (antibody, V domains shown)
VH: B1 VH
VL: B1 VL with S49A
B5: AB-007069 (antibody, V domains shown)
VH: B1 VH
VL: B1 VL with G50V
B6: AB-007058 (antibody, V domains shown)
VH: B1 VH with S103T
VL: B1 VL
B7: AB-007050 (antibody, V domains shown)
VH: B1 VH with Y53Q
VL: B1 VL
B8: AB-007068 (antibody, V domains shown)
VH: B1 VH
VL: B1 VL with G50L
B9: AB-007045 (antibody, V domains shown)
VH: B1 VH with G100A
VL: B1 VL
B10: AB-007055 (antibody, V domains shown)
VH: B1 VH with S102T
VL: B1 VL
B11: AB-007056 (antibody, V domains shown)
VH: B1 VH with S102Q
VL: B1 VL
B12: AB-007060 (antibody, V domains shown)
VH: B1 VH with F105Y
VL: B1 VL
B13: AB-007066 (antibody, V domains shown)
VH: B1 VH
VL: B1 VL with G50Q
B14: AB-007067 (antibody, V domains shown)
VH: B1 VH
VL: B1 VL with G50S
B15: AB-007061 (antibody, V domains shown)
VH: B1 VH
VL: B1 VL with S30D
B16: AB-007029 (antibody, V domains shown)
VH: B1 VH with M2V
VL: B1 VL
B17: AB-007065 (antibody, V domains shown)
VH: B1 VH
VL: B1 VL with G50K
B18: AB-007064 (antibody, V domains shown)
VH: B1 VH
VL: B1 VL with S49T
B19: AB-007062 (antibody, V domains shown)
VH: B1 VH
VL: B1 VL with R31S
B20: AB-007053 (antibody, V domains shown)
VH: B1 VH with N57Q
VL: B1 VL

target: (NPNA)3 (Plasmodium falciparum); experiment: SPR, antibody on chip

| Binder | Kd |
| --- | --- |
| B1 | 4.91 nM and 11.2 nM |
| B2 | 1550 nM |
| B3 | 174 nM |
| B4 | 14.1 nM |
| B5 | 204 nM |
| B6 | 339 nM |
| B7 | 271 nM |
| B8 | 111 nM |
| B9 | 246 nM |
| B10 | 1470 nM |
| B11 | 62 nM |
| B12 | 212 nM |
| B13 | 357 nM |
| B14 | 207 nM |
| B15 | 6.69 nM |
| B16 | 11.3 nM |
| B17 | 125 nM |
| B18 | 152 nM |
| B19 | 10 nM |
| B20 | 112 nM |

target: (NANP)6 (Plasmodium falciparum); experiment: SPR, antibody on chip

| Binder | Kd |
| --- | --- |
| B1 | 1.75 nM and 0.817 nM |
| B2 | 1 nM |
| B3 | 0.266 nM |
| B4 | 0.194 nM |
| B5 | 1.85 nM |
| B6 | 0.137 nM |
| B7 | 0.54 nM |
| B8 | 1.56 nM |
| B9 | 2.35 nM |
| B10 | 0.403 nM |
| B11 | 0.104 nM |
| B12 | 1.21 nM |
| B13 | 0.979 nM |
| B14 | 0.244 nM |
| B15 | 0.0657 nM |
| B16 | 0.177 nM |
| B17 | 0.238 nM |
| B18 | 0.192 nM |
| B19 | 0.338 nM |
| B20 | 1.42 nM |

target: … (Plasmodium falciparum); experiment: SPR, antibody on chip

| Binder | Kd |
| --- | --- |
| B1 | 12900 nM and 15800 nM |
| B4 | 12200 nM |
| B15 | 14600 nM |
| B16 | 26200 nM |
| B19 | 25000 nM |

target: (NVDP)3(NANP)2 (Plasmodium falciparum); experiment: SPR, antibody on chip

| Binder | Kd |
| --- | --- |
| B1 | 2590 nM and 2910 nM |
| B3 | 17500 nM |
| B4 | 3890 nM |
| B8 | 32400 nM |
| B15 | 4000 nM |
| B16 | 4790 nM |
| B17 | 12600 nM |
| B19 | 6250 nM |

target: (NPNA)3 (Plasmodium falciparum); experiment: BLI, target on sensor

| Binder | Kd |
| --- | --- |
| B1 | 0.18 nM and 0.8 nM |
| B2 | 3.33 nM |
| B3 | 0.478 nM |
| B4 | 0.691 nM |
| B5 | 1.43 nM |
| B6 | 1.3 nM |
| B7 | 1.05 nM |
| B8 | 0.703 nM |
| B9 | 0.734 nM |
| B10 | 3.62 nM |
| B11 | 0.263 nM |
| B12 | 1.14 nM |
| B13 | 3.58 nM |
| B14 | 2.02 nM |
| B15 | 0.00376 nM |
| B16 | 0.166 nM |
| B17 | 2.23 nM |
| B18 | 0.453 nM |
| B19 | 0.00796 nM |
| B20 | 0.552 nM |

target: (NANP)6 (Plasmodium falciparum); experiment: BLI, target on sensor

| Binder | Kd |
| --- | --- |
| B1 | 0.714 nM and 1.38 nM |
| B2 | 1.46 nM |
| B3 | 1.41 nM |
| B4 | 1.64 nM |
| B5 | 1.33 nM |
| B6 | 1.14 nM |
| B7 | 0.856 nM |
| B8 | 1.59 nM |
| B9 | 0.703 nM |
| B10 | 1.61 nM |
| B11 | 0.88 nM |
| B12 | 0.898 nM |
| B13 | 0.315 nM |
| B14 | 0.647 nM |
| B15 | 0.385 nM |
| B16 | 0.803 nM |
| B17 | 0.729 nM |
| B18 | 0.434 nM |
| B19 | 0.607 nM |
| B20 | 1.37 nM |

target: NANPNVDP (Plasmodium falciparum); experiment: BLI, target on sensor

| Binder | Kd |
| --- | --- |
| B1 | 9.2 nM and 12.7 nM |
| B3 | 25.8 nM |
| B4 | 13.1 nM |
| B5 | 26.6 nM |
| B8 | 21.8 nM |
| B9 | 28.2 nM |
| B11 | 29.6 nM |
| B15 | 12.3 nM |
| B16 | 13.2 nM |
| B17 | 15.8 nM |
| B18 | 36.7 nM |
| B19 | 22.4 nM |
| B20 | 24.7 nM |

target: … (Plasmodium falciparum); experiment: BLI, target on sensor

| Binder | Kd |
| --- | --- |
| B1 | 2.76 nM and 2.51 nM |
| B2 | 28.6 nM |
| B3 | 17.4 nM |
| B4 | 7.03 nM |
| B5 | 27.5 nM |
| B6 | 46.3 nM |
| B7 | 37.4 nM |
| B8 | 18.3 nM |
| B9 | 43.6 nM |
| B11 | 23.6 nM |
| B12 | 43.2 nM |
| B13 | 26.6 nM |
| B14 | 36.1 nM |
| B15 | 4.11 nM |
| B16 | 5.62 nM |
| B17 | 9.73 nM |
| B18 | 30.9 nM |
| B19 | 14.3 nM |
| B20 | 23.5 nM |

target: (NVDP)3(NANP)2 (Plasmodium falciparum); experiment: BLI, target on sensor

| Binder | Kd |
| --- | --- |
| B1 | 4.27 nM and 3.73 nM |
| B2 | 34.6 nM |
| B3 | 19.8 nM |
| B4 | 9.73 nM |
| B5 | 28.7 nM |
| B6 | 42.2 nM |
| B7 | 33.4 nM |
| B8 | 17.1 nM |
| B9 | 43.9 nM |
| B11 | 24.9 nM |
| B12 | 45.2 nM |
| B13 | 22.4 nM |
| B14 | 34 nM |
| B15 | 5.68 nM |
| B16 | 6.67 nM |
| B17 | 9.71 nM |
| B18 | 33.7 nM |
| B19 | 13.6 nM |
| B20 | 25.8 nM |
